Reference: PMC7890179, “Adiponectin forms a complex with atherogenic LDL and inhibits its downstream effects” (Journal of Lipid Research, 2020)

How the values were obtained:
[1] = molecular target: copper-oxidized low density lipoprotein (human (endogenous in human plasma)); assay: ELISA; native LDL or oxLDL (1 μg/ml) captured on anti-apoB monoclonal antibody HUC20 on a 384-well plate; recombinant adiponectin added for 1 h at 25°C, washed with PBS, detected with anti-adiponectin polyclonal antibody; apparent Kd, 1:1 reversible binding assumed
[2] = molecular target: copper-oxidized low density lipoprotein (human (endogenous in human plasma), oxidized with 7.5 μM CuSO4 for 16 h (residues not stated)); assay: as above; conditions: both partners purified

In the case of “globular form of adiponectin protein with an N-terminal His-tag sequence (domain or fragment; other documents disagree on this pair)”, the Kd [1] is reported as 45.3 nM.

B1: Human recombinant full-length adiponectin protein (composed of the LMW, MMW, and HMW isoforms) with a C-terminal FLAG sequence (natural protein, UniProt Q15848 19-244, looked up)
chain: ETTTQGPGVLLPLPKGACTGWMAGIPGHPGHNGAPGRDGRDGTPGEKGEKGDPGLIGPKGDIGETGVPGAEGPRGFPGIQGRKGEPGEGAYVYRSAFSVGLETYVTIPNMPIRFTKIFYNQQNHYDGSTGKFHCNIPGLYYFAYHITVYMKDVKVSLFKKDKAMLFTYDQYQENNVDQASGSVLLHLEVGDQVWLQVYGEGERNGLYADNDNDSTFTGFLLYHDTN
notes: adiponectin, human, full-length recombinant protein; A mixture of trimers (LMW), hexamers (MMW) and HMW multimers; Secreted from HEK293 cells, so the signal peptide is probably absent (surmised); also called AdN; human recombinant full-length AdN; source: bought: BioVendor cat. no; RD172023100, produced in HEK293 cells
For B1, the Kd [2] was 15.7 nM.
